{
  "source": "patent US20260139278A1",
  "about": "“SPECIFICITY OF CRISPR-TRANSPOSON SYSTEMS IN DNA MODIFICATION” (The Trustees of Columbia University in the City of New York, published 2026)",
  "binders": {"B1": {"name": "TnsB (Scytonema hofmannii UTEX B 2349, Type V-K CAST, recombinantly purified, after TEV cleavage) (protein)", "chain": "SNNSQQNPDLAVHPLAIPMEGLLGESATTLEKNVIATQLSEEAQVKLEVIQSLLEPCDRTTYGQKLREAAEKLNVSLRTVQRLVKNWEQDGLVGLTQTSRADKGKHRIGEFWENFITKTYKEGNKGSKRMTPKQVALRVEAKARELKDSKPPNYKTVLRVLAPILEKQQKAKSIRSPGWRGTTLSVKTREGKDLSVDYSNHVWQCDHTRVDVLLVDQHGEILSRPWLTTVIDTYSRCIMGINLGFDAPSSGVVALALRHAILPKRYGSEYKLHCEWGTYGKPEHFYTDGGKDFRSNHLSQIGAQLGFVCHLRDRPSEGGVVERPFKTLNDQLFSTLPGYTGSNVQERPEDAEKDARLTLRELEQLLVRYIVDRYNQSIDARMGDQTRFERWEAGLPTVPVPIPERDLDICLMKQSRRTVQRGGCLQFQNLMYRGEYLAGYAGETVNLRFDPRDITTILVYRQENNQEVFLTRAHAQGLETEQLALDEAEAASRRLRTAGKTISNQSLLQEVVDRDALVATKKSRKERQKLEQTVLRSAAVDESNRESLPSQIVEPDEVESTETVHSQYEDIEVWDYEQLREEYGF"}, "B2": {"name": "TniQ (Scytonema hofmannii UTEX B 2349, Type V-K CAST, recombinantly purified, after TEV cleavage) (other)", "chain": "SNIEAPDVKPWLFLIKPYEGESLSHFLGRFRRANHLSASGLGTLAGIGAIVARWERFHFNPRPSQQELEAIASVVEVDAQRLAQMLPPAGVGMQHEPIRLCGACYAESPCHRIEWQYKSVWKCDRHQLKILAKCPNCQAPFKMPALWEDGCCHRCRMPFAEMAKLQKV", "notes": "also called ShCAST TniQ; adaptor protein"}, "B3": {"name": "55-bp FAM dsDNA (dsDNA)", "DNA 1": "GAGGAGGGCTGTTTTTACAAAATCCGGTAGTAACTTGCTAACCAATTCCTAGGCA", "DNA 2": "TGCCTAGGAATTGGTTAGCAAGTTACTACCGGATTTTGTAAAAACAGCCCTCCTC"}},
  "key": {"[1]": {"biological_target": "T1, TnsC (Scytonema hofmannii UTEX B 2349, Type V-K CAST, recombinantly purified, after TEV cleavage)", "T1 chain": "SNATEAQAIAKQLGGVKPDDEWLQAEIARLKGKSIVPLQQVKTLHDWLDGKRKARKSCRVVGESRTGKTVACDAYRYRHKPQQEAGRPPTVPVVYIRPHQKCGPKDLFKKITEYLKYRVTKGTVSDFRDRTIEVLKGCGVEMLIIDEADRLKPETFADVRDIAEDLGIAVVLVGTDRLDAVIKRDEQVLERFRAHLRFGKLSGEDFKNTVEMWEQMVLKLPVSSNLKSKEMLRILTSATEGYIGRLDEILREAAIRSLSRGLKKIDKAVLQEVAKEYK"}, "[2]": {"biological_target": "T2, TnsC (Scytonema hofmannii UTEX B 2349, Type V-K CAST, recombinantly purified, after TEV cleavage) (Scytonema hofmannii (UTEX B 2349))", "T2 construct": "also called AAA+ ATPase; AAA+ regulator", "T2 chain": "T1 chain", "test": "fluorescence polarization, TniQ (0-1 µM) titrated onto 55-bp FAM-labeled dsDNA preincubated with TnsC", "method": "(§1) Fluorescence polarization. Fluorescence polarization was performed as reported earlier (Hoffmann, F. T. et al. Nature 609, 384-393 (2022). A 55 bp dsDNA labeled with a 5′ Fluorescein (6-FAM) tag on one of its strands was used for all fluorescence polarization experiments (Table 3). Recombinantly expressed TnsC (0-15 μM) was titrated with the FAM-labeled dsDNA in 1× binding buffer (20 mM HEPES pH 7.5, 2 mM MgCl₂, 200 mM NaCl, 10 μM ZnCl₂, 1 mM DTT) in the presence of 2 mM ATP or its analogs. The samples were incubated at 37° C. for 30 min in a 384-well plate. The fluorescence gain was adjusted to a sample lacking TnsC while keeping a requested polarization value of 60 mP. The error bar represents the standard deviation measured across two technical replicates. For low salt measurements, the concentration of NaCl was maintained at 50 mM.\n(§2) For fluorescence polarization measurements for TniQ alone or its interaction with DNA bound to TnsC, TniQ (0-1 μM) was titrated and incubated for 30 min at 37° C. with fluorescently labeled DNA alone or DNA preincubated with […] (30 min at 37° C.). Experiments were conducted in a 1× binding buffer containing 50 mM NaCl in a 25 μL final volume."}, "[3]": {"biological_target": "T3, TniQ + TnsC (ShCAST) (Scytonema hofmannii UTEX B 2349)", "T3 chain 1": "B2 chain", "T3 chain 2": "T1 chain", "test": "FP; TniQ titrated onto DNA preincubated with TnsC, 50 mM NaCl, 37C", "settings": "tags: His6-SUMO-TEV cleaved", "method": "as §1, §2"}, "[4]": {"biological_target": "T4, TnsC (ShCAST) (Scytonema hofmannii UTEX B 2349)", "T4 chain": "T1 chain", "test": "FP; ATP-dependent at 200 mM NaCl; nucleotide-independent at 50 mM NaCl; 2 mM MgCl2, 37C", "settings": "tags: His6-SUMO-TEV cleaved (SNA N-terminal scar)", "method": "as §1"}},
  "data": [
    {"binder": "B1", "values": [
      {"measurement": "ATP hydrolysis activity of TnsC (Malachite Green assay)", "setting": "[1]", "result": "TnsB stimulates the ATP hydrolysis activity of TnsC in a DNA-dependent reaction"},
      {"measurement": "phosphate liberated (Malachite Green Phosphate Assay; TnsC 10 µM, TnsB 20 µM, dsDNA 10 µM, 1 mM ATP, 120 min at 37° C.)", "setting": "[1]", "result": "the sample containing TnsC, TnsB and dsDNA which liberated 174 µM of phosphate"}
    ]},
    {"binder": "B2", "values": [
      {"measurement": "binding result", "setting": "[2]", "result": "binds"}
    ]},
    {"binder": "B3", "values": [
      {"measurement": "binding result", "setting": "[3]", "result": "binds"},
      {"measurement": "binding result", "setting": "[4]", "result": "binds"}
    ]}
  ]
}
